{"source": "a protein production outcome set (Wang et al. 2014)", "assay": "label from the status in PepcDB records", "data": [{"sequence": "MKLGIGKIKDVLKSGAGKSTESGREEQKIEEIEPDRVEEATMTAKISEQESENTPDKEHLVPMNRTECKKTGLIFFPAFDWAISPTHPEREERLLYTRDQIFEEGLMDLPQIAEYKPRLAEFKDIARVHFCIPDIEAQATTPHLIAAGSCLVLADALMRGEVKNAFALVRPPGHHAMTVAHGNRGFCNINNEAILVEYLRKKYGIRRIAIVDTDVHHGDGTQEIFYNDPDILFISFHQDGRTLYPGSGFTNELGGPKALGRTINIPLPPGTPDEGILYVLDSLVMPILEDFKPELVLNSAGQDNHYTDPLANMRFSAQGYAKLNEKLGPDMAVLEGGYAIQSALPYVNTGIILAMAGLDYSCVMEPDFKPGMFVQAARDRQILEGVVATQLENWKNRNRLVEEEIAKHGDFYRRKKQIFYDTDMIQEVQEETIKMCPDCQGYVTIDSRAHRSINDTRIFGVSVPIYACNRCQAEAEEEYKKRLKSPEYEYVYLQDKKADEYRAYNMRTKQEIVY", "values": [{"measurement": "protein production", "value": "failed"}]}, {"sequence": "MSQTPSLAQLQPADAFLRRHLGPDPAEQQAMLAFLGVSTRAELIVQTVPPAIRLNRPLELPAALDEQAALARLRGYAGLNQRWTSLIGMGYYGTVTPSVILRNVLENPGWYTAYTPYQPEIAQGRLEALLNFQQLTIDLTGLDLASASLLDEATAAAEAMALARRVAKARSNRFFVDAHCHPQTVSVLRTRAEAFGFELVVDEPDNLAAHAVFGALLQYPDSRGEIRDLRPLIEALHGQQALACVASDLLALLLLTPPGELGADVVLGSAQRFGVPMGYGGPHAAFFATREGYKRAMPGRIIGVSRDARGNPALRMALQTREQHIRREKANSNICTAQVLLANIASLYAVYHGPQELKRIAQRVQRLTALLAAGLKSKGLRRLNRHFFDTLTYEVGERQAAILERARAARVNLRVVDDRRLALSLDETCDAATLATLFEIFLGAGHGLDVAHLDGGAVADGIPAVLQRTSAYLQHPVFNAHHSETEMLRYLRQLEGKDLALNQAMIPLGSCTMKLNASSEMIPITWPEFAELHPFVPREQAEGYRRMIDELEAWLRAITGFDAICMQPNSGAQGEYAGLLAIRRYHQSRGDSQRDICLIPASAHGTNPASAIMASMRVVIVECDPRGNVDLDDLRLKAAEAGDRLSCLMITYPSTHGVYEEGIGEICEVVHRHGGQVYMDGANLNAQVGLARPADIGADVSHMNLHKTFCIPHGGGGPGMGPIGVKRHLAPFVANHPVIRVEGPNPLNDAVSATPWGSASILPISWMYIAMMGPQLADASEVAILSANYLANRLDGAFPVLYRGRNERVAHECILDLRPLKAQTGITEEDVAKRLMDYGFHAPTMSFPVPGTLMVEPTESESKAELDRFVEAMLSIRAEIGKVESGAWPAEDNPLKRAPHTLADVTGIWQRPYEIAEAVTPSEHARAFKYWPAVNRVDNVYGDRNLFCACVPLDDYR", "values": [{"measurement": "protein production", "value": "failed"}]}, {"sequence": "MLKAYRYRIYPTKAQEEFFEKAFGCCRFVWNKMLEEKLEALKQGKKVPRITPARYKKEYPFLREVDSLALANVQMKQEKAFKDFFKNPKHFGIPKFKRKKDKQSYTTNNQQTKSGNETIRVDFEKGLLYLPKVKSGIKAVFHREFEGKIKSATVVKTKAGRYYVSILVDVQDPRNKEVNRIFENEITKRENFICGIDTGLISFVTIANDTGISKIEYPKYLIKAEKRLKRLQRQLSRKKEGSKNWEKARERLAKEYEYVKNSREDFLHKISKTIIDENQVVVVESLNVKGLSRTRLSKHILDSSWSKFLRYLKYKADWYGRKVIEADRSFPSSKMCSRCGYINKELKLKDRVWKCPKCKAVHDRDENAAKNLKNYGIAYIRNQ", "values": [{"measurement": "protein production", "value": "failed"}]}, {"sequence": "MERKINRREKEKEYEGKHNSLEDTDQGKNCKSTLMTLNVGGYLYITQKQTLTKYPDTFLEGIVNGKILCPFDADGHYFIDRDGLLFRHVLNFLRNGELLLPEGFRENQLLAQEAEFFQLKGLAEEVKSRWEKEQLTPRETTFLEITDNHDRSQGLRIFCNAPDFISKIKSRIVLVSKSRLDGFPEEFSISSNIIQFKYFIKSENGTRLVLKEDNTFVCTLETLKFEAIMMALKCGFRLLTSLDCSKGSIVHSDALHFIK", "values": [{"measurement": "protein production", "value": "failed"}]}, {"sequence": "MDNKVILVGGFHEIIELCEDNDIEIAGIIDNYLTNDTYWGYPIIGTDDKAKVLFETYKNVPVLITPDVPHVRYKLYHYYKSIGFQVASLISRDASISRSAIIGEGTIIQRGANLSSNIKIGQMVKVNTNANIMHDCLIGNYVTVAPNAVLLGKVEIDDKAYIGANATLLPSVKIGENVTVGAGSVVTKSVRPNTVVKGSPAK", "values": [{"measurement": "protein production", "value": "failed"}]}, {"sequence": "MITTFKCVLVTKNIRMNERLMNSQSGYLRKAVNHPINWYTWSNDVFEIAKKENKPILIDVGAAWCHWCNVMDEDTYSNPEIAKIVNENFIPVKVDRDEMPDLDRLLQNAAMAITGESGWPLTIFMTPEGKVFFGGTYFPPEDRYGRIGFKRLLLEILRIWREDRNQILLSS", "values": [{"measurement": "protein production", "value": "failed"}]}, {"sequence": "MTAPKVFVSHASEDKARFVVDFARRLRENGVDAWLDQWEMKPGDSLVDKIFEEGLREARAVVIVLSATSVRKPWVREELNASVVNRISRGTKLIPVVIDDCDVPEALRSTVLEHHHHHH", "values": [{"measurement": "protein production", "value": "failed"}]}, {"sequence": "MIVEVLIRVFFLICTAALGWGAGYILKLSSKEISSLLVYVISPFVIFVSILQSPADWTYFAYSLGALLTASVAAFLAYGLARMIWSDGRVNLFSFAAGTGNTGYFALPLAFALFNAQQIAIAVFIIIGINIYEFTVGYFIAAKGTFKTTDSLQKIVRLPILYAIILGMTFKKWGIDVGATLLSAMSNFKGAYSVLGMMVIGVTLASYQKIKIDWGFLIATLTWKHLIYPAVGVLIFYFITPVSIDTLAVIVMMLATPMAANTVVVANTLNLYPEKAAFSVMVSTFLAVVTVPLAIVWVTRLSR", "values": [{"measurement": "protein production", "value": "failed"}]}, {"sequence": "MKLYLILLPVLYLIVSYISIFKMHSVITRILRIVMGILLLFVVALTTLQFPKENWWVFVVLLLLVGNVEVTGFKELKDDKKGVSILNILSLLLFVIFIILIFILY", "values": [{"measurement": "protein production", "value": "failed"}]}, {"sequence": "MTHVTLRSEFETLIDPYAPVAQVGTGFDFTEGPIWHPIDHYLLFSDMPGDVRRRWDARRGMAEVKRPSNKCNGMTYDAELNLIVCEHATSSLIRERPDGRREVLASHFGGQELNSPNDVCVHSSGAIYFSDPWYGRMPVYGVERPRQLGFQGVYRVMPGGEPKLVVDRNLFDQPNGLCFSPDERLLYVNDTVQALIRVFDVNADGTLSNARVFASSIKSELEPGLPDGMKCDQHGNVWVTAPGGVWVYSPRGELLGKVRVPELVANLAWGGPDFRTLYLTSTHSVYAIPTRVGPRHEPYMSGRRGGAGASAGPAAAAPILTDGEMRLDPQRCAMIIQDLQNDVIMDGGAFDGSGAPAHAKQQHVVENVRRLAEAARARGVAIIHVWFVVEPGAPGVTLNAPLFEGLVDSKAMVRGSWGAAPVSGLEPRPGDFVVEKMRMSAWEGTRLETILKATGRDMIINTGAWTNMSVEHTARTGADKGYFMIVPEDCCSTMNADWHSASINFAMQNVAIVTRADAVIRALG", "values": [{"measurement": "protein production", "value": "failed"}]}, {"sequence": "MTSTETPLNSPAAAADRRRWFALAIVMTAAFMDLVDVTIVNIAIPSIQRDAGASWGQIQWITAGYALAFAAGLITGGRLGDIHGRKRLFLIGIGGFTLASALCGFAANPEMLVASRILQGGMAAMMVPQVLSIVHATFPAHERGKVFGLFGAIVGLGAVSGPLLGALLTEWNLFGLEWRPIFLINLPVGVAGLILGRRFITESKAPRALKLDLVGVALVTLGLLMLLYPLTRGRELGWPLWGHVSMAGALVVFAALVAYERRKTARDGSPLVELSLFKVKSFAAGIAVQTVFGIALGIFFLVWTLYMQMGLGWSALRAGLTGVPFSIAVSAAAGMSVQLLVPRFGRKVLQAGALLMALGVLLYIWESDRYGMAIASWQMALPLVVMGAGMGFIVAPLTDAVLSEVPREHSGSASGLINTVQQMGNALGLGLVSVVFFGEIGDRLTRAQVGPAFAHAFQHALGWVAVVLAVIFLLMFALPKRPAQHVEGAGAADTLGEKEPVLVP", "values": [{"measurement": "protein production", "value": "failed"}]}, {"sequence": "EGLDYLTAPNPPSIREELCTASHDTITVHWISDDEFSISSYELQYTIFTGQANFISLYNSVDSWMIVPNIKQNHYTVHGLQSGTRYIFIVKAINQAGSRNSEPTRLKTNSQPFK", "values": [{"measurement": "protein production", "value": "not failed"}]}, {"sequence": "MAIDSKPHDDLQLFKTNLHPCGYWPDRWASDLVMDPNDPRLGAIYPQTLAWGFRRSGNLLYRPHCEHCNACVPVRVNVNAFVPNRSQRRCLARNATLVTRIVPAERNAEQLSLYRRYLHQRHPDGGMDGHGAIEFDQFLIGPWGYGRFMEIREPATNGTPGQLLAVAVTDLTHQALSAVYTFYEPNAAARGLGTLAILHQIHWAQREQRPYLYLGYWIKDHFKMDYKRRFQKLEIYDGYRWRPFSTTYPTTHTLLEHHHHHH", "values": [{"measurement": "protein production", "value": "not failed"}]}]}
